Assay results published in patent US9579365B2, “Therapeutic ribonucleases” (Quintessence Biosciences, Inc., priority 2008, dated 2017).

How the values were obtained:
ribonuclease inhibitor = biological target: T1, ribonuclease inhibitor (Homo sapiens, UniProt P13489); assay: ribonuclease inhibitor evasion; format: binding; conditions: compared with QBI-119 and native human RNase 1
T1 sequence (P13489 1-461): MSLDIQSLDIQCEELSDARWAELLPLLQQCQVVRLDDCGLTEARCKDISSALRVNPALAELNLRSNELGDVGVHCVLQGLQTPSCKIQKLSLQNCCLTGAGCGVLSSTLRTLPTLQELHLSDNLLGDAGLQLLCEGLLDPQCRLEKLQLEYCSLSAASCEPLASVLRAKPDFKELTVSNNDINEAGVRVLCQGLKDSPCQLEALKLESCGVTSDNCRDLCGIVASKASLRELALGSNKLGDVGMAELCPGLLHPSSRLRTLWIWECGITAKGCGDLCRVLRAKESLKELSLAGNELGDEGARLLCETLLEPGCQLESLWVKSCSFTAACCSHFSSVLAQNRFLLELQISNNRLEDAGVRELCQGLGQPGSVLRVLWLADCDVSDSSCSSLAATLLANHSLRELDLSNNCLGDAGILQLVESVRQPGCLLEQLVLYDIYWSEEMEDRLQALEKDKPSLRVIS

RNA = assay: ribonuclease (enzyme) activity compared with native human RNase 1; format: biochemical

B1: SEQ ID NO:1: native human RNase 1 with amino acid modifications R4C, G38R, R39G, N67R, G89R, S90R, and V118C (protein)
chain: KESCAKKFQRQHMDSDSSPSSSSTYCNQMMRRRNMTQRGCKPVNTFVHEPLVDVQNVCFQEKVTCKRGQGNCYKSNSSMHITDCRLTNRRRYPNCAYRTSPKERHIIVACEGSPYVPCHFDASVEDST
Ribonuclease inhibitor
  ribonuclease inhibitor evasion, comparison in words: inferior to QBI-119 and native human RNase 1
RNA; compared with QBI-119 and native human RNase 1
  enzyme activity, comparison in words: inferior to QBI-119 and native human RNase 1
RNA; relative to native human RNase 1
  fraction of the ribonuclease activity of native human RNase1: less than 1%
